Data taken from the supplement of paper PMC12764529.
± gives the half width of the 95% confidence interval.

Assays:
[1] = folding stability dG unfold (combined trypsin and chymotrypsin); higher = more stable
In short: (§1)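 Only designs with AlphaFold2 dimer inter-PAE above 15 were retained; each was a mini-protein under 80 residues with no cysteine, in a PA-tagged cDNA display construct. After digestion with trypsin and chymotrypsin and sequencing, K50 was inferred by Bayesian fitting of counts, and unfolding free energy was derived per protease or combined against a sequence-predicted unfolded-state K50 and a shared folded-state K50.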

[2] = folding stability dG unfold from trypsin proteolysis; higher = more stable
In short: as §1

[3] = folding stability dG unfold from chymotrypsin proteolysis; higher = more stable
In short: as §1

| Sequence | folding stability dG unfold [1] [kJ/mol] | folding stability dG unfold [2] [kJ/mol] | folding stability dG unfold [3] [kJ/mol] |
| --- | --- | --- | --- |
| SAGGGSMFSTIYDPNSNNSIEAPLLSIREEDGRPTIEYQLPDGTRVTRPLSELGAFTLTGGAGSLTLPSAGG [r13_211_JUSTAS] | 3.24 ± 0.314 | 3.47 ± 0.218 | 2.31 ± 0.586 |
| SAGGGSMKTIELTVTNPATGETVTVTLELDPSVSEEEVEARIKETEEAVEKELLAPEPPLAPTPARASAGGS [r16_191_JUSTAS] | 3.2 ± 0.259 | -1.94 ± 0.402 | 5.12 ± 0.0962 |
| SAGGGSMLIRRRLLLVERIEDGLLTYDIEEEVYLPLPEPEVPVSVERRPDGSLVLTFPDGTRRLLPRSAGGS [r16_136_JUSTAS] | 8.4 ± 0.544 | 6.88 ± 0.322 | 9.99 ± 0.711 |
| SAGGGSMTPTTTTKTYNVPPELAQKILDGYPLGDKELAAALGLPPDVEVTLVSSDEDTLTVEITIPASAGGS [r16_679_JUSTAS] | 16 ± 0.314 | 14.6 ± 0.586 | 16.9 ± 0.285 |
| SAGGGSMVTQTEFTLPDGTKVSESTLPDGTVTTTITDPTNPTVTTSPVRTVSPGPLSPANPALVAALSAGGS [r16_482_JUSTAS] | -1.32 ± 0.418 | -4.54 ± 0.753 | -0.709 ± 0.753 |
| SAGGGSSSSSLTFTYDPATGKVLGSESFTIPSPSGEPRTNVLTLVEKNPSGTLKTTVLTRPVPPTLSSAGGS [r16_595_JUSTAS] | 11.1 ± 1.46 | 6.5 ± 0.418 | 11 ± 0.402 |
| SAGGGSTTTRTIGSKDGTVATVTVTTDPATGTTTVTISSPSPEVLEEVAAQLGLPVREVLPDGTVVLASAGG [r13_937_JUSTAS] | 4.53 ± 0.155 | 2.76 ± 0.0962 | 5.23 ± 0.0628 |
| SAGGGSTTTYSIPEGPLTLEVTTVTVGDGTVKKTVVTTPEGKRTEIPPSNPITIPPNWTVTSSVTLTSAGGS [r16_669_JUSTAS] | 0.0493 ± 0.669 | -0.478 ± 0.502 | 0.223 ± 0.669 |
| SAGGHTIWIPFDSPEQAKELANEIARELNDHGLKVKVKVHPDDGWIKVKVDMRNNDKEKKIKIWFPFPSAGG [r13_641_TrROS] | 7.45 ± 1.51 | 3.53 ± 0.418 | 10.2 ± 0.753 |
| SAGGIAEAIGEAIAKAPGVAEVEVDIEITKIEPTPGDGAYAHIDIRVRARHPVTGEEVELRFDIVFPLDSAG [r5_176_TrMRF] | 12.8 ± 0.711 | 12.1 ± 0.586 | 13.3 ± 0.628 |
| SAGGIEDIANEFGIEDVEIEEINPEYNEVTVTFRFRGPNGNPFTWTYTIEVPPPPPPEPKMDPEDNNNSAGG [r13_608_TrROS] | 7.59 ± 1.34 | 4.44 ± 0.502 | 10.2 ± 0.669 |
| SAGGIIIYPKDPDGKQRPIPPEVIRRIVDTIARRYGFEIKIDIEIEPTNDYWVITIPIEIEGLPPEQLSAGG [r13_790_TrROS] | 9.13 ± 0.36 | 7.82 ± 0.251 | 9.32 ± 0.285 |
| SAGGIKEFADTLQDHGGTVTVEPVNNGSLKVSIQHRDPEDGRMYRMEIEIPPENNKLEIDDWEPYPNSAGGS [r16_613_TrROS] | 0.413 ± 0.879 | 0.297 ± 0.628 | 1.3 ± 1.13 |
| SAGGIKELAKKGYEIKEVTVRVRNKDGSVYEITEIKVVDGELYIKVKNKKTGKIEEKKIPLKDIEIVPSAGG [r13_340_TrROS_Hall] | 7.65 ± 0.377 | 4.96 ± 0.188 | 8.85 ± 0.121 |
| SAGGIKIEIMFLMPLKDVRSIIDEIAKMPGIKITDVEVDIIPFENGTVMFRVTFEIEIYDPENGEPISAGGS [r8_374_TrROS] | 17.8 ± 1.51 | 16.5 ± 0.879 | 20 ± 0.753 |
| SAGGIPPNDPEYQQKMQLLKEIQNFAKEQQQNGRDVKIETIEINPEDGRVTITVQYPNGKKVTITIPSAGGS [r8_277_TrROS] | 6.92 ± 0.268 | 7.48 ± 0.238 | 6.52 ± 0.201 |

| Sequence | folding stability dG unfold [1] [kJ/mol] | folding stability dG unfold [2] [kJ/mol] | folding stability dG unfold [3] [kJ/mol] |
| --- | --- | --- | --- |
| SAGGIWIPIDRIREALKDGMPLDEIVDKLRKHGFPIDRITGIEPSPNSWTIEIEFPEQGMPIEIQISSAGGS [r8_179_TrROS] | 7.96 ± 0.356 | 8.1 ± 0.218 | 6.93 ± 0.146 |
| SAGGIWIPVPNADWAVDFIIEFIDQFGPGAKIDKITVYNGGKEREITPGEPPKIPPGSWFEIDLEPKSAGGS [r16_267_TrROS] | 4.12 ± 0.314 | 2.92 ± 0.155 | 4.8 ± 0.356 |
| SAGGKDGKPKPKVEPEITVQFYIPLPPDDLTPEEIAQWMSDHFGFPFTNVEIERHPEDNYYRVSFTIRSAGG [r13_457_TrROS] | 10 ± 0.36 | 7.8 ± 0.268 | 10.7 ± 0.418 |
| SAGGKDVKPIPVRIKIWYPDDGKPIHEIPVSAYQMDDKIHITFESPELLQFAKELAQKKGFKVEIEPSAGGS [r16_327_TrROS] | 2.91 ± 0.46 | 2.15 ± 0.197 | 3.14 ± 0.502 |
| SAGGKEKKKEKEEKKKKPKPKFIKIKLSPEELLKLAKELPNIDRIFVEVDGKLYEFDAKTGKIVEVDSAGGS [r16_214_TrROS_Hall] | 8.25 ± 0.753 | 5.36 ± 0.418 | 10 ± 0.335 |
| SAGGKEKKPKVELKITSISEFEGGLVIEGEATTPTKKIKVLAVYDPSTGKITVWRETPEGIEPLAEFGSAGG [r13_445_TrMRF] | 9.1 ± 0.205 | 7.35 ± 0.247 | 10.05 ± 0.0753 |
| SAGGKEKVKIKIKIIDKKTNKVYEAEATFDKETGKVTITFPDGSKITFDLKTNKLYIEKDGKIIEIESAGGS [r16_743_TrROS_Hall] | 13.3 ± 1.17 | 11.1 ± 1.13 | 14.8 ± 0.381 |
| SAGGKEKYKIKIYNKKTGKEYEFEIPLDEIVKYDKKNKKIYIKLKNGKKLEFKSLEDIVKIEIEKLPSAGGS [r8_111_TrROS_Hall] | 13.1 ± 0.586 | 9.8 ± 0.368 | 14.6 ± 0.234 |
| SAGGKELILKLKIEVNGKTLTIEVKVSPEELKKLLDELKKLGIKEIEIESIEFDKETNEIKVKVKVKSAGGS [r8_219_TrROS_Hall] | 15.8 ± 0.628 | 10.6 ± 0.264 | 17.1 ± 0.711 |
| SAGGKEVKPIKGKVKITVNGKEIEVEVKKAKIVKNKDGSYYIFIEKDGKKLLIKLKNGKLVKIEEVPSAGGS [r16_721_TrROS_Hall] | 14.3 ± 0.372 | 9.93 ± 0.406 | 16.3 ± 0.176 |
| SAGGKEWYIKVSIEHRNPNNGEKRELSITIPVEGMSAEEALDIARELARHLPPENVKIEVDIVPLDDSAGGS [r16_774_TrROS] | 7.76 ± 0.711 | 7.46 ± 0.213 | 8.7 ± 0.134 |
| SAGGKEYTAKVVEIKKVGNKIFIKIKLSDGRELTIEIKTPEEAKKLKVGDTVKITVNEDGSLTIEVLSAGGS [r16_2_TrROS_Hall] | 17.9 ± 0.31 | 17.7 ± 0.628 | 18.1 ± 0.268 |
| SAGGKGKAVPFEIEFEAPGGKKVKAKITRIDLPDKPIYRVEVEVDGKKITYTATEDEAANLTFTPGGSAGGS [r8_257_TrMRF] | 8.03 ± 0.669 | 6.21 ± 0.243 | 9.25 ± 0.146 |
| SAGGKIEVEPEVELYRTPDGRLVARPKPVKVKITLKLTITNENGEKKTIEVEADTPEEALAALKALSSAGGS [r8_440_TrROS_Hall] | 4.04 ± 0.586 | 4.3 ± 0.222 | 3.04 ± 0.837 |
| SAGGKIIAEGEFELEDGYVVRVKVEYDEETGELRVEVEVFEVEVELPEVEVKREFSDEELTEEEKEASAGGS [r8_461_TrROS_Hall] | 5.83 ± 1.05 | 3.75 ± 0.795 | 7.39 ± 0.711 |
